From the supplement of paper PMC9112550, “Optimization of the antimicrobial peptide Bac7 by deep mutational scanning” (BMC Biology, 2022)

Test system: Escherichia coli TOP10
Test: shrunken log2 fold change of peptide-encoding DNA abundance (4.5 h post-induction vs induction); higher = less antimicrobial activity (less host growth inhibition)
Conditions: time post-induction: 4.5 h; library: site-saturation at positions 5, 18, 19, 20
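Also: peptides expressed intracellularly from a pBAD plasmid library in pooled LB shake-flask culture, induced with 0.3% L-arabinose, DNA abundance read by NGS, three biological replicates, DESeq2 with apeglm shrinkage.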

Sequence	shrunken log2 fold change
RRIRDRPPRLPRPRPRPHDWPRP	0.807
RRIRDRPPRLPRPRPRPHENPRP	0.116
RRIRDRPPRLPRPRPRPHFDPRP	0.141
RRIRDRPPRLPRPRPRPHFFPRP	0.152
RRIRDRPPRLPRPRPRPHFNPRP	-0.381
RRIRDRPPRLPRPRPRPHFYPRP	-0.321
RRIRDRPPRLPRPRPRPHLEPRP	-0.169
RRIRDRPPRLPRPRPRPHLPPRP	-0.0459
RRIRDRPPRLPRPRPRPHLQPRP	0.157
RRIRDRPPRLPRPRPRPHNKPRP	-0.373
RRIRDRPPRLPRPRPRPHNPPRP	-0.231
RRIRDRPPRLPRPRPRPHRYPRP	-0.21
RRIRDRPPRLPRPRPRPHTLPRP	-0.196
RRIRDRPPRLPRPRPRPHVNPRP	0.000411
RRIRDRPPRLPRPRPRPHVWPRP	0.0894
RRIRDRPPRLPRPRPRPHWWPRP	0.272
RRIRDRPPRLPRPRPRPIAAPRP	0.476
RRIRDRPPRLPRPRPRPIADPRP	0.163
RRIRDRPPRLPRPRPRPICCPRP	0.037
RRIRDRPPRLPRPRPRPIDKPRP	-0.0708
RRIRDRPPRLPRPRPRPIGEPRP	-0.00228
RRIRDRPPRLPRPRPRPIGGPRP	0.0266
RRIRDRPPRLPRPRPRPIHGPRP	-0.0134
RRIRDRPPRLPRPRPRPIIMPRP	-0.226
RRIRDRPPRLPRPRPRPIKSPRP	-0.236

Sequence	shrunken log2 fold change
RRIRDRPPRLPRPRPRPIMPPRP	-0.0491
RRIRDRPPRLPRPRPRPIMRPRP	0.225
RRIRDRPPRLPRPRPRPINSPRP	-0.292
RRIRDRPPRLPRPRPRPINWPRP	-0.044
RRIRDRPPRLPRPRPRPISQPRP	0.12
RRIRDRPPRLPRPRPRPISWPRP	0.0803
RRIRDRPPRLPRPRPRPITPPRP	-0.117
RRIRDRPPRLPRPRPRPITRPRP	0.0173
RRIRDRPPRLPRPRPRPIVYPRP	-0.0329
RRIRDRPPRLPRPRPRPIWFPRP	-0.192
RRIRDRPPRLPRPRPRPIYSPRP	-0.15
RRIRDRPPRLPRPRPRPIYWPRP	0.202
RRIRDRPPRLPRPRPRPKAEPRP	-0.0211
RRIRDRPPRLPRPRPRPKAFPRP	-0.00149
RRIRDRPPRLPRPRPRPKAWPRP	0.107
RRIRDRPPRLPRPRPRPKCVPRP	0.104
RRIRDRPPRLPRPRPRPKDGPRP	-0.0429
RRIRDRPPRLPRPRPRPKDQPRP	-0.111
RRIRDRPPRLPRPRPRPKIRPRP	-0.0266
RRIRDRPPRLPRPRPRPKKFPRP	0.117
RRIRDRPPRLPRPRPRPKKGPRP	0.26
RRIRDRPPRLPRPRPRPKLDPRP	0.0966
RRIRDRPPRLPRPRPRPKLFPRP	0.168
RRIRDRPPRLPRPRPRPKLLPRP	0.0314
RRIRDRPPRLPRPRPRPKMVPRP	0.223

Sequence	shrunken log2 fold change
RRIRDRPPRLPRPRPRPKNFPRP	-0.174
RRIRDRPPRLPRPRPRPKPEPRP	0.0415
RRIRDRPPRLPRPRPRPKQGPRP	0.0662
RRIRDRPPRLPRPRPRPKQVPRP	-0.185
RRIRDRPPRLPRPRPRPKREPRP	-0.024
RRIRDRPPRLPRPRPRPKSEPRP	0.0995
RRIRDRPPRLPRPRPRPKSPPRP	0.0198
RRIRDRPPRLPRPRPRPKSQPRP	0.231
RRIRDRPPRLPRPRPRPKSWPRP	0.421
RRIRDRPPRLPRPRPRPKSYPRP	0.0134
RRIRDRPPRLPRPRPRPKTCPRP	0.00179
RRIRDRPPRLPRPRPRPKTPPRP	-0.00153
RRIRDRPPRLPRPRPRPKVGPRP	-0.017
RRIRDRPPRLPRPRPRPKVLPRP	-0.041
RRIRDRPPRLPRPRPRPKVNPRP	-0.287
RRIRDRPPRLPRPRPRPKVQPRP	0.116
RRIRDRPPRLPRPRPRPKYMPRP	-0.326
RRIRDRPPRLPRPRPRPKYWPRP	-0.147
RRIRDRPPRLPRPRPRPLALPRP	0.0811
RRIRDRPPRLPRPRPRPLDLPRP	-0.116
RRIRDRPPRLPRPRPRPLGDPRP	0.0385
RRIRDRPPRLPRPRPRPLHDPRP	-0.0658
RRIRDRPPRLPRPRPRPLIHPRP	-0.0249
RRIRDRPPRLPRPRPRPLIIPRP	-0.0486
RRIRDRPPRLPRPRPRPLIVPRP	0.173
